From patent US20100129383A1 (GOVERNORS OF THE UNIVERSITY OF ALBERTA, published 2010)

Molecular target: T1, DEC-205 receptor on DC 2.4 cells (mouse) (mouse, UniProt Q60767 28-1723)
T1 construct: whole, on cells; also called CD205
Test: competition cell ELISA on DC 2.4 cells; competitor bfFp (WET7) pre-bound

B1: HB290 mAb (rat anti-mouse DEC-205 monoclonal antibody) (antibody, V domains shown)
VH: EVKLVESGGGLVQPGGSLRLSCAASGFTFNDFYMNWIRQPPGQAPEWLGVIRNKGNGYTTEVNTSVKGRFTISRDNTQNILYLQMNSLRAEDTAIYYCARGGPYYYSGDDAPYWGQGVMVTVSS
VL: DIQMTQSPSFLSTSLGNSITITCHASQNIKGWLAWYQQKSGNAPQLLIYKASSLQSGVPSRFSGSGSGTDYIFTISNLQPEDIATYYCQHYQSFPWTFGGGTKLELK
notes: Full-length rat mAb from the ATCC hybridoma HB290; also called full-length HB290 mAb; NLDC-145
  binding result: binds
